Measurements published in article PMC10249356 (Biochemistry, 2023).

How the values were obtained:
[1] = test system: T1, C/C(=C\C(=O)O)C(=O)SCCNC(=O)CCNC(=O)[C@H](O)C(C)(C)COP(=O)(O)OP(=O)(O)OC[C@H]1O[C@@H](n2cnc3c(N)ncnc32)[C@H](O)[C@@H]1OP(=O)(O)O; assay: purified protein; assay type: biochemical, Clostridium kluyveri; conditions: 200 mM HEPES pH 7.5, 400 µM NADPH, 400 nM enzyme, 30 °C, apparent KM
T1 construct: His-tagged, expressed in E. coli BL21(DE3), HisTrap purified (gel filtration for crystals); homodimer

[2] = test system: T2, CC(C)(COP(=O)(O)OP(=O)(O)OC[C@H]1O[C@@H](n2cnc3c(N)ncnc32)[C@H](O)[C@@H]1OP(=O)(O)O)[C@@H](O)C(=O)NCCC(=O)NCCSC(=O)CCC(=O)O; assay: purified protein; assay type: biochemical, Clostridium kluyveri; conditions: 200 mM HEPES pH 7.5, 400 µM NADPH, 400 nM enzyme, 30 °C, apparent KM
T2 construct: His-tagged, expressed in E. coli BL21(DE3), HisTrap purified (gel filtration for crystals); homodimer

CkSucD = target: T3, CkSucD (Clostridium kluyveri, UniProt P38947); assay: X-ray crystal structure, […] Å; assay type: binding
T3 construct: gene sucD; His-tagged, expressed in E. coli BL21(DE3), HisTrap purified (gel filtration for crystals); homodimer
T3 sequence (P38947 1-453): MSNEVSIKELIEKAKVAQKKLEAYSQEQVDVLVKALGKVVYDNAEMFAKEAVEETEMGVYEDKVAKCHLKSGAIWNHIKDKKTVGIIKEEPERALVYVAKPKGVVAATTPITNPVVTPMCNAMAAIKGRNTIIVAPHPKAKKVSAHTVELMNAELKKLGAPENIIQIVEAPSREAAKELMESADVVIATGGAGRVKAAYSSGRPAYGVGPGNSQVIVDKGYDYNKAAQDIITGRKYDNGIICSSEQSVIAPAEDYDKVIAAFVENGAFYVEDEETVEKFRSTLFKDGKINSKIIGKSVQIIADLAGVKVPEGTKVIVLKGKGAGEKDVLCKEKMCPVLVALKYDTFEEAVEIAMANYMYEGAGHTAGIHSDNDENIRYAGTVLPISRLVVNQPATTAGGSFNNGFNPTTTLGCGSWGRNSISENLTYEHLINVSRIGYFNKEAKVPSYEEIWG

[3] = test system: CC(C)(COP(=O)(O)OP(=O)(O)OC[C@H]1O[C@@H](n2cnc3c(N)ncnc32)[C@H](O)[C@@H]1OP(=O)(O)O)[C@@H](O)C(=O)NCCC(=O)NCCSC(=O)CCCO; assay: purified protein; conditions: 200 mM HEPES pH 7.5, 400 µM NADPH, 400 nM enzyme, 30 °C, apparent KM
purified protein [4] = substrate: C/C(=C\C(=O)O)C(=O)SCCNC(=O)CCNC(=O)[C@H](O)C(C)(C)COP(=O)(O)OP(=O)(O)OC[C@H]1O[C@@H](n2cnc3c(N)ncnc32)[C@H](O)[C@@H]1OP(=O)(O)O; assay: purified protein; conditions: 200 mM HEPES pH 7.5, 400 µM NADPH, 400 nM enzyme, 30 °C, apparent KM
purified protein [5] = substrate: C/C(=C\C(=O)SCCNC(=O)CCNC(=O)[C@H](O)C(C)(C)COP(=O)(O)OP(=O)(O)OC[C@H]1O[C@@H](n2cnc3c(N)ncnc32)[C@H](O)[C@@H]1OP(=O)(O)O)C(=O)O; assay: purified protein; conditions: 200 mM HEPES pH 7.5, 400 µM NADPH, 400 nM enzyme, 30 °C, apparent KM
purified protein [6] = substrate: C/C=C/C(=O)SCCNC(=O)CCNC(=O)[C@H](O)C(C)(C)COP(=O)(O)OP(=O)(O)OC[C@H]1O[C@@H](n2cnc3c(N)ncnc32)[C@H](O)[C@@H]1OP(=O)(O)O; assay: purified protein; conditions: 200 mM HEPES pH 7.5, 400 µM NADPH, 400 nM enzyme, 30 °C, apparent KM
purified protein [7] = substrate: CC(C)(COP(=O)(O)OP(=O)(O)OC[C@H]1O[C@@H](n2cnc3c(N)ncnc32)[C@H](O)[C@@H]1OP(=O)(O)O)[C@@H](O)C(=O)NCCC(=O)NCCSC(=O)CCC(=O)O; assay: purified protein; conditions: 200 mM HEPES pH 7.5, 400 µM NADPH, 400 nM enzyme, 30 °C, apparent KM
purified protein [8] = substrate: CCC(=O)SCCNC(=O)CCNC(=O)[C@H](O)C(C)(C)COP(=O)(O)OP(=O)(O)OC[C@H]1O[C@@H](n2cnc3c(N)ncnc32)[C@H](O)[C@@H]1OP(=O)(O)O; assay: purified protein; conditions: 200 mM HEPES pH 7.5, 400 µM NADPH, 400 nM enzyme, 30 °C, apparent KM
[9] = target: the molecule itself; assay: crystal structure; X-ray structures of CkSucD without ligands (8CEI), with NADPH (8CEK) and with mesaconyl-C1-CoA (8CEJ); sitting-drop vapor diffusion at 288 K
purified protein [10] = substrate: C/C(=C\C(=O)O)C(=O)SCCNC(=O)CCNC(=O)[C@H](O)C(C)(C)COP(=O)(O)OP(=O)(O)OC[C@H]1O[C@@H](n2cnc3c(N)ncnc32)[C@H](O)[C@@H]1OP(=O)(O)O; assay: purified protein; assay type: biochemical, Clostridioides difficile; conditions: 200 mM HEPES pH 7.5, 400 µM NADPH, 30 °C, apparent KM
purified protein [11] = substrate: CC(C)(COP(=O)(O)OP(=O)(O)OC[C@H]1O[C@@H](n2cnc3c(N)ncnc32)[C@H](O)[C@@H]1OP(=O)(O)O)[C@@H](O)C(=O)NCCC(=O)NCCSC(=O)CCC(=O)O; assay: purified protein; assay type: biochemical, Clostridioides difficile; conditions: 200 mM HEPES pH 7.5, 400 µM NADPH, 30 °C, apparent KM

With “CkSucD (Clostridium kluyveri DSM 555; K70R)” the Km [1] was 86.1 ± 15.1 µM, the kcat [1] was 0.1 ± 0.01 s⁻¹ and the Km [2] was 19.9 ± 2.3 µM. The kcat [2] was 0.9 ± 0.03 s⁻¹.

In the case of `NC(=O)C1=CN([C@@H]2O[C@H](COP(=O)(O)OP(=O)(O)OC[C@H]3O[C@@H](n4cnc5c(N)ncnc54)[C@H](OP(=O)(O)O)[C@@H]3O)[C@@H](O)[C@H]2O)C=CC1` [NADPH], the “X-ray crystal structure, 2.1 Å” value (CkSucD; 5 mM NADPH, pH 6.5 (abstract calls the ligand NADP+)) is reported as 8CEK (with NADPH).

In the case of CkSucD (Clostridium kluyveri DSM 555), the Km [3] is reported as 48.9 ± 10.8 µM and the kcat [3] is reported as 0.2 ± 0.01 s⁻¹.

`C/C(=C\C(=O)O)C(=O)SCCNC(=O)CCNC(=O)[C@H](O)C(C)(C)COP(=O)(O)OP(=O)(O)OC[C@H]1O[C@@H](n2cnc3c(N)ncnc32)[C@H](O)[C@@H]1OP(=O)(O)O` [mesaconyl-C1-CoA] was tested, and the “X-ray crystal structure, 2.1 Å” value (CkSucD; 5 mM ligand, pH 7.5, active site, intact ligand in chain C, covalent mesaconyl-Cys242 in chains A, B, D) was “mesaconyl-C1 CoA bound state (pdb 8CEJ”.

B1: Succinyl-CoA reductase (SucD) from Clostridium kluyveri (enzyme)
chain: T3 sequence (P38947 1-453)
notes: Succinyl-CoA reductase (SucD) of Clostridium kluyveri, UniProt P38947; In PDB 8CEJ Cys242 carries a mesaconyl-cysteine intermediate in subunits A, B and D; also called CkSucD; source: E. coli BL21 DE3, purified (HisTrap FF, desalting, size exclusion chromatography on Superdex 200)
In the case of B1, the Km (purified protein [4]) is reported as 28.5 ± 4.7 µM, the kcat (purified protein [4]) is reported as 1.6 ± 0.07 s⁻¹ and the Km (purified protein [5]) is reported as 25.7 ± 6.8 µM. For the same molecule, the kcat (purified protein [5]) was 0.2 ± 0.02 s⁻¹, the Km (purified protein [6]) was 332.6 ± 54.8 µM and the kcat (purified protein [6]) was 0.3 ± 0.03 s⁻¹. For the same molecule, the Km (purified protein [7]) was 22.6 ± 4.9 µM, the kcat (purified protein [7]) was 7.8 ± 0.43 s⁻¹ and the Km (purified protein [8]) was 145.2 ± 144 µM. The kcat (purified protein [8]) was 0.1 ± 0.04 s⁻¹ and the “stoichiometry N” value [9] was 2.

B2: CdSucD (Clostridioides difficile R20291) (protein)
chain: MEKAVENFEDLSKEYINGYIERARKAQREFECYTQEQVDKIVKIVGKVVYYNAEYLAKLAVEETGMGVYEDKVAKNKSKAKVIYNNLKDKKSVGIIDIDRETGITKVAKPVGVVAAITPCTNPIVTPMSNAMFALKGRNAIIITPHHKAIGCSTKTVEMINEELEKIGAPENLIQILDQQSRENTRNLISSADVVIATGGMGMVKAAYSSGKPALGVGAGNVQCIIDRDVDIKEAVPKIIAGRIFDNGIICSGEQSVIVAEEMFDKIMDEFKNNKGFIVRDKVQKEAFRNAMFVNKSMNKDAVGQSVHTIAKIAGVEIPEDTKIIVIEADGPGEEDIIAKEKMCPVISAYKYKSFEEGVAIAKANLNVEGKGHSVSIHSNTVKNIEYAGENIEVSRFVINQCCATSAGGSFFNGLAPTNTLGCGSWGNNSISENLDYKHLINISRIAYYMPENEVPTDEELWG
notes: His-tagged, expressed in E. coli BL21(DE3), HisTrap purified
B2 gave a Km (purified protein [10]) of 38.3 ± 14.9 µM, a kcat (purified protein [10]) of 0.65 ± 0.08 s⁻¹ and a Km (purified protein [11]) of 213.8 ± 49.4 µM. The kcat (purified protein [11]) was 28.7 ± 4.1 s⁻¹.
